{
  "source": "patent US20250376509A1",
  "about": "(Janssen / Centocor, published 2025)",
  "molecular_target": "T1, CALRins5 (Type 2 mutant calreticulin) on ELF-153 MPL CALRins5 cells (human, UniProt P27797 18-417)",
  "T1 sequence (looked up)": "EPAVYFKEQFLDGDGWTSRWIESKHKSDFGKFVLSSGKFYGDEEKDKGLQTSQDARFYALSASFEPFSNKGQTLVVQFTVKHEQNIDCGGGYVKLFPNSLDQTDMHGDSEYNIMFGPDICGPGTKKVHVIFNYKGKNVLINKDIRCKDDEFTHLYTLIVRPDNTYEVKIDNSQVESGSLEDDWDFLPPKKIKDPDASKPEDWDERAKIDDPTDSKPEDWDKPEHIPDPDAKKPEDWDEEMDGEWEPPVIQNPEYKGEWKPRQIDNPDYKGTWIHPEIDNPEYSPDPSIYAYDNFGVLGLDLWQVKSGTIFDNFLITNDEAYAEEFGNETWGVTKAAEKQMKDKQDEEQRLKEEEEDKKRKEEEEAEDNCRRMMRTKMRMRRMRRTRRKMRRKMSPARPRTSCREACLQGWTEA",
  "experiment": "cell-based or functional assay",
  "data": [
    {"binder": "C3CRB73, a CALRmut x CD3 bispecific antibody (bispecific antibody, human IgG1, kappa, L234A L235A) heavy: EVQLLESGGGLVQPGGSLRLSCAVSGIDLSNNAISWVRQAPGKGLEYVGVIGNTGDTYYADSAKGRFTISRDSSKTTLYLQMNSLRAEDTAVYFCVRGPPSYSSSVKNIWGQGTLVTVSSASTKGPSVFPLAPSSKSTSGGTAALGCLVKDYFPEPVTVSWNSGALTSGVHTFPAVLQSSGLYSLSSVVTVPSSSLGTQTYICNVNHKPSNTKVDKKVEPKSCDKTHTCPPCPAPEAAGGPSVFLFPPKPKDTLMISRTPEVTCVVVSVSHEDPEVKFNWYVDGVEVHNAKTKPREEQYNSTYRVVSVLTVLHQDWLNGKEYKCKVSNKALPAPIEKTISKAKGQPREPQVYTLPPSREEMTKNQVSLSCAVKGFYPSDIAVEWESNGQPENNYKTTPPVLDSDGSFFLVSKLTVDKSRWQQGNVFSCSVMHEALHNRFTQKSLSLSPGK light: DIQMTQSPSSVSASVGDRVTITCQSSQSVYNNNWLSWLQQKPGKAPKRLIYDASKLESGVPSRFSGSGSGTDFTLTISSVQPEDAATYYCAGGFTGNVYTFGGGTKVEIKRTVAAPSVFIFPPSDEQLKSGTASVVCLLNNFYPREAKVQWKVDNALQSGNSQESVTEQDSKDSTYSLSSTLTLSKADYEKHKVYACEVTHQGLSSPVTKSFNRGEC DIQMTQSPSSLSASVGDRVTITCRARQSIGTAIHWYQQKPGCAPKLLIKYASESISGVPSRFSGSGSGTDFTLTISSLQPEDFATYYCQQSGSWPYTFGQGTKLEIKGGGSGGSGGCPPCGGSGGEVQLVESGGGLVKPGGSLRLSCAASGFTFSRYNMNWVRQAPGKGLEWVSSISTSSNYIYYADSVKGRFTFSRDNAKNSLDLQMSGLRAEDTAIYYCTRGWGPFDYWGCGTLVTVSSEPKSSDKTHTCPPCPAPEAAGGPSVFLFPPKPKDTLMISRTPEVTCVVVSVSHEDPEVKFNWYVDGVEVHNAKTKPREEQYNSTYRVVSVLTVLHQDWLNGKEYKCKVSNKALPAPIEKTISKAKGQPREPQVYTLPPSREEMTKNQVSLWCLVKGFYPSDIAVEWESNGQPENNYKTTPPVLDSDGSFFLYSKLTVDKSRWQQGNVFSCSVMHEALHNHYTQKSLSLSPGK", "values": [
      {"measurement": "median EC50 of ELF-153 MPL CALRins5 cells cytotoxicity using patient whole blood", "result": 0.64, "unit": "nM"}
    ]}
  ]
}
